± gives the uncertainty stated by the source.
Assay: self-splicing fitness, log relative to wild type (ln ratio); higher = more splicing; Tetrahymena group I intron in knt gene, E. coli kanamycin selection, DiMSum; sequences stand for … in CUCUCU…GGAGGGAAAAGUUAUCAGGCAUGCACCUGGUAGCUAGUCUUUAAACCAAUAGAUUGCAUCGGUUUAAAAGGCAAGACCGUCAAAUUGCGGGAAAGGGGUCAACAGCCGUUCAGUACCAAGUCUCAGGGGAAACUUUGAGAUGGCCUUGCAAAGGGUAUGGUAAUAAGCUGACGGACAUGGUCCUAACCACGCAGCCAAGUCCUAAGUCAACAGAUCUUCUGUUGAUAUGGAUGCAGUUCACAGACUAAAUGUCGGUCGGGGAAGAUGUAUUCUUCUCAUAAGAUAUAGUCGGACCUCUCCUUAAUGGGAGCUAGCGGAUGAAGUGAUGCAACACUGGAGCCGCUGGGAACUAAUUUGUAUGCGAAAGUAUAUUGAUUAGUUUUGGAGUACUCGUGGUCG
Procedure, shortened: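 Library with all eight P1ex-region intron nucleotides randomised, intron inside the knt kanamycin-resistance gene on pET-22b(+), in E. coli BL21(DE3). Cells grew overnight at 37°C or 30°C on LB agar with or without 25 μg/mL kanamycin (plus 100 μg/mL carbenicillin, 50 μM IPTG, 0.2% rhamnose), in six replicate transformations. Pooled colonies were amplicon-sequenced on Illumina HiSeq 2500. DiMSum fitness is the error-weighted combination of wild-type-normalised replicate fold changes, kanamycin versus none.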

Row | Sequence | self-splicing fitness (ln) (30 °C) | self-splicing fitness (ln) (37 °C)
1 | GACUAGCAAUAUUACGGAGU | -4.2 ± 0.25 | -2.87 ± 0.21
2 | UUAAAGCAAUAUUACGACCG | -0.379 ± 0.12 | 0.397 ± 0.16
3 | AAUCAGCAAUAUUACGGCCA | -0.515 ± 0.11 | -0.146 ± 0.12
4 | CACAAGCAAUAUUACGGAAA | -3.04 ± 0.19 | -2.99 ± 0.2
5 | UGGAAGCAAUAUUACGACUA | -0.154 ± 0.074 | 0.331 ± 0.11
6 | UCUCAGCAAUAUUACGUGCU | -4.22 ± 0.23 | -2.61 ± 0.2
7 | AGUGAGCAAUAUUACGGCUG | -2.19 ± 0.12 | -0.36 ± 0.16
8 | UUCCAGCAAUAUUACGGUCA | -0.23 ± 0.084 | 0.239 ± 0.1
9 | UGACAGCAAUAUUACGUACA | -0.21 ± 0.087 | 0.281 ± 0.12
10 | UCAGAGCAAUAUUACGCGGA | -2.96 ± 0.33 | -1.64 ± 0.17
11 | AUCUAGCAAUAUUACGUAGC | -3.71 ± 0.35 | -1.84 ± 0.27
12 | GACUAGCAAUAUUACGGUGU | -1.84 ± 0.098 | -0.76 ± 0.1
13 | AGAAAGCAAUAUUACGCAGU | -2.5 ± 0.16 | -2.07 ± 0.2
14 | CUCCAGCAAUAUUACGAGAU | -2.99 ± 0.19 | -3.15 ± 0.21
15 | CCCCAGCAAUAUUACGAACU | -5.09 ± 0.45 | -2.29 ± 0.2
16 | GUUCAGCAAUAUUACGCACU | -0.633 ± 0.085 | 0.537 ± 0.12
17 | GCAUAGCAAUAUUACGACCG | -0.896 ± 0.17 | 0.516 ± 0.14
18 | AUGCAGCAAUAUUACGGGAA | -2.83 ± 0.16 | -1.92 ± 0.14
19 | UGUUAGCAAUAUUACGCUAA | -2.05 ± 0.4 | –
20 | CGACAGCAAUAUUACGAUAU | -2.96 ± 0.14 | -2.84 ± 0.12
21 | CAUUAGCAAUAUUACGGUCG | -0.452 ± 0.14 | 0.576 ± 0.14
22 | UAACAGCAAUAUUACGCAUU | -2.59 ± 0.12 | -0.539 ± 0.096
23 | ACCUAGCAAUAUUACGGAGU | -3.61 ± 0.13 | -2.39 ± 0.12
24 | GCCGAGCAAUAUUACGGCGA | -0.848 ± 0.21 | -1.42 ± 0.24
25 | UAUGAGCAAUAUUACGUGGC | -3.07 ± 0.2 | -2.52 ± 0.46

Row | Sequence | self-splicing fitness (ln) (30 °C) | self-splicing fitness (ln) (37 °C)
26 | GAAUAGCAAUAUUACGGUAA | -2.25 ± 0.16 | -0.943 ± 0.13
27 | GAUCAGCAAUAUUACGUUGA | -2.24 ± 0.17 | -1.54 ± 0.15
28 | CACAAGCAAUAUUACGGUAG | -0.991 ± 0.043 | -0.207 ± 0.059
29 | GAGAAGCAAUAUUACGAUAC | -1.73 ± 0.13 | -0.221 ± 0.18
30 | UGAAAGCAAUAUUACGAUCG | -0.144 ± 0.15 | 0.0927 ± 0.17
31 | CCAAAGCAAUAUUACGAAAC | -3.13 ± 0.2 | -2.95 ± 0.34
32 | AGUGAGCAAUAUUACGUAGU | -4.14 ± 0.26 | -2.82 ± 0.26
33 | UUUUAGCAAUAUUACGUACU | – | 0.399 ± 0.37
34 | AGUUAGCAAUAUUACGUGCA | -1.6 ± 0.14 | -0.22 ± 0.15
35 | AUGUAGCAAUAUUACGAUCA | -0.747 ± 0.22 | -0.492 ± 0.18
36 | CGCGAGCAAUAUUACGCUGU | -2.6 ± 0.16 | -2.74 ± 0.31
37 | UUUUAGCAAUAUUACGAGAU | – | -1.25 ± 0.4
38 | AGCGAGCAAUAUUACGAAAG | – | -0.117 ± 0.3
39 | UCUGAGCAAUAUUACGGAAU | -3.33 ± 0.34 | -1.88 ± 0.27
40 | GCUCAGCAAUAUUACGCGGA | -2.01 ± 0.26 | -2.63 ± 0.28
41 | AUCCAGCAAUAUUACGCCUA | -1.29 ± 0.19 | 0.121 ± 0.13
42 | UUUAAGCAAUAUUACGGCGG | -0.0601 ± 0.13 | -0.212 ± 0.18
43 | AUGUAGCAAUAUUACGCAAG | -1.8 ± 0.14 | -0.627 ± 0.14
44 | GUUUAGCAAUAUUACGAGCA | -1.35 ± 0.25 | -0.983 ± 0.48
45 | GAUAAGCAAUAUUACGCAGC | -3.45 ± 0.47 | -0.777 ± 0.29
46 | GUUUAGCAAUAUUACGAAGU | -2.65 ± 0.16 | -2.03 ± 0.38
47 | UCUUAGCAAUAUUACGAUGC | -2.66 ± 0.3 | –
48 | GAAUAGCAAUAUUACGACGG | -3.32 ± 0.36 | -1.1 ± 0.19
49 | ACGCAGCAAUAUUACGUAUG | -4.32 ± 0.22 | -2.54 ± 0.16
50 | UCAGAGCAAUAUUACGCAUA | -3.19 ± 0.42 | –

Reference: the supplement of paper PMC7877785
